This note sets out measurements from patent US20100008928A1 (Takeda / Millennium, published 2010).

Holding throughout (assay): FCM
The target in assay [1] is T1, nectin-2 Ig2 domain-deficient protein (human, UniProt Q92692 32-538).
T1 construct: transient in CHO-K1; also called delta-Ig2; Nectin-2ΔIg2
T1 sequence: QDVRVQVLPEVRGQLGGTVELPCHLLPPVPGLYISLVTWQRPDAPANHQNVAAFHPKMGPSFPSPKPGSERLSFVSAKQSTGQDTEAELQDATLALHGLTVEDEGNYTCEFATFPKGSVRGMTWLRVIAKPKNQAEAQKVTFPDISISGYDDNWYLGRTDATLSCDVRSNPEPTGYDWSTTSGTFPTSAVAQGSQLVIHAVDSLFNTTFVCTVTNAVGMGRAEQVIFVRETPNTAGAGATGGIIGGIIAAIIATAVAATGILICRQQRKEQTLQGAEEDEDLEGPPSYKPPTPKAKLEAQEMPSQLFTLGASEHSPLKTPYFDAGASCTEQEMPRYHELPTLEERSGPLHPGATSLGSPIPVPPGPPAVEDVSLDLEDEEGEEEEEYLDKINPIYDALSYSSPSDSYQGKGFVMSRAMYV
Method: (§1) After 200 μL of FCM buffer was added to each well and washed once by centrifugal operation, 50 μL each of Alexa488-labeled secondary antibody diluted in FCM buffer to 10 μg/mL was added to and mixed therewith, and the mixture was then reacted on ice for an hour. The Alexa488-labeled secondary antibody used was Alexa Fluor488 goat anti-human IgG (H+L) for the human antibodies and Alexa Fluor488 goat anti-rabbit IgG (H+L) (Invitrogen) for the rabbit antibody. The cells in each well were washed twice with FCM buffer and then resuspended in 250 μL of FCM buffer. Using the flow cytometer MPL500 (BECKMAN COULTER), the fluorescence intensity of stained cells was measured to determine the ratio of the median value of fluorescence intensities of the respective antibodies in the primary antibody group to the median value of fluorescence intensities in the negative control group.

The target of assay [2] is T2, nectin-2 Ig1 domain-deficient protein (human, UniProt Q92692 32-538).
T2 construct: transient in CHO-K1; also called delta-Ig1; Nectin-2ΔIg1
T2 sequence: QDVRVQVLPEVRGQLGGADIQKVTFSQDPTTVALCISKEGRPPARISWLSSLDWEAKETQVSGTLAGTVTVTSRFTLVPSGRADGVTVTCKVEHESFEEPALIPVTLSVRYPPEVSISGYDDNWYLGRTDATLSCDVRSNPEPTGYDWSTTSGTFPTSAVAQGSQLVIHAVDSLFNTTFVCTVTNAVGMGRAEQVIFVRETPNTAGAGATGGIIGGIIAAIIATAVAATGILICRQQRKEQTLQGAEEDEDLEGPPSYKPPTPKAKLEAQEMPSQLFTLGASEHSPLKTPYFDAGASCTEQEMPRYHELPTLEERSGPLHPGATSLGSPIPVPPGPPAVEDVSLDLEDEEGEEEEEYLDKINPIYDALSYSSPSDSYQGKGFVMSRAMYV
Method: as §1

The next assay addresses T3, human nectin-4 protein (human, UniProt Q96NY8 32-510).
T3 construct: transient in CHO-K1 from pCMV-Tag4-Nectin-4
T3 sequence: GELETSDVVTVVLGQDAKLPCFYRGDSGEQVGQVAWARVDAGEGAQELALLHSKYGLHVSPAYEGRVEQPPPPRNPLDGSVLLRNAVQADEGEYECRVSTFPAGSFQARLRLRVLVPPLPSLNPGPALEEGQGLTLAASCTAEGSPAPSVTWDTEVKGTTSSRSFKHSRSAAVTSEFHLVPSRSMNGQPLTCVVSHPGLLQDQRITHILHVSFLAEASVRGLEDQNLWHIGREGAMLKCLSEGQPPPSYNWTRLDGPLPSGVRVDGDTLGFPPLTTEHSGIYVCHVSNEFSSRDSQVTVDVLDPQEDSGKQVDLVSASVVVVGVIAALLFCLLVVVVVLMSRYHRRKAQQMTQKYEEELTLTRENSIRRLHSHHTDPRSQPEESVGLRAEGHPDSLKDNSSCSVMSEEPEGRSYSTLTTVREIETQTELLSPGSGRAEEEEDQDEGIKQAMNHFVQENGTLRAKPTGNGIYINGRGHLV

The next assay deals with T4, human nectin-1 protein (human, UniProt Q15223 31-517).
T4 construct: transient in CHO-K1 from pCMV-Tag4-Nectin-1
T4 sequence: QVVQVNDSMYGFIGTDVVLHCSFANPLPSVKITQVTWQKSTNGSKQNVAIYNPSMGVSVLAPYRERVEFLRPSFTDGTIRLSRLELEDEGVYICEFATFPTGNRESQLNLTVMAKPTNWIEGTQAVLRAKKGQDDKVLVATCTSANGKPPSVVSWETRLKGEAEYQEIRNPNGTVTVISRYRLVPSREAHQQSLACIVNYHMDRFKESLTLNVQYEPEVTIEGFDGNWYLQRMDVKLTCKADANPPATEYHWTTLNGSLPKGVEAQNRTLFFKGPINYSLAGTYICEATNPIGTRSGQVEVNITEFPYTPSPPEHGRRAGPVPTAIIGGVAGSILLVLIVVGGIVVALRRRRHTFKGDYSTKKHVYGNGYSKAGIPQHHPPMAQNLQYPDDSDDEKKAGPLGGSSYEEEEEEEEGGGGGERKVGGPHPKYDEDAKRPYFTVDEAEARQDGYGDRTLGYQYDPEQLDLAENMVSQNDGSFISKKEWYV

For a further assay, the target named is T5, human Nec1-5 protein (human, UniProt P15151 21-417).
T5 construct: transient in CHO-K1 from pCMV-Tag4-Nec1-5; also called Necl-5
T5 sequence: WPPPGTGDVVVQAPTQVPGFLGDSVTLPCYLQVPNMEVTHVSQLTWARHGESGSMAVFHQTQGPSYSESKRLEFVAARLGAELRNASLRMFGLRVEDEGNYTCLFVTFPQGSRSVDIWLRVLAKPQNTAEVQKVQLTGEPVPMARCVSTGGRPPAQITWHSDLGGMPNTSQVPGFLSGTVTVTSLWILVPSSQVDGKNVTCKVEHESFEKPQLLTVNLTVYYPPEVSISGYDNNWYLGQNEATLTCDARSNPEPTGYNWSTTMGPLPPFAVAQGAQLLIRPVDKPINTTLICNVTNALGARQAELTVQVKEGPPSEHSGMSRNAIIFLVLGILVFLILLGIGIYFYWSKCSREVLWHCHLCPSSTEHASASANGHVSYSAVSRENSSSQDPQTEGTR

Method for human Nec1-5 protein: (§2) Specifically, CHO-K1 cell line was incubated in a T75 flask charged with a medium mixture of DMEM and F-12 in equivalent volumes (Invitrogen) supplmented with 10% FBS (JRH) at 37° C. for 1 to 2 days in a 5% carbon dioxide gas flow. […] Four hours after the transfection, the medium for the CHO-K1 cells was exchanged with a fresh aliquot of the medium described above, followed by incubation for further 2 days. These cells were washed twice with D-PBS, detached by Cell Dissociation Buffer, enzyme-free, PBS-based (Invitrogen) and resuspended in D-PBS (−) containing 1% FBS and 0.1% sodium azide (hereinafter referred to as FCM buffer) at a density of 5×10⁶ cells/mL. […] After 200 μL of FCM buffer was added to each well and washed once by centrifugal operation, 50 μL/well of Alexa488-labeled secondary antibody diluted in FCM buffer to 10 μg/mL was added for suspension, which was then reacted on ice for an hour.
Method for human nectin-1 protein: as §2
Method for human nectin-4 protein: as §2

B1: Nec1-554-1 SP3 (antibody, V domains shown)
VH: EVQLVESGGGLVKPGGSLRLSCAASGFTFSSYNMNWVRQAPGKGLEWVSSISSSSSYIYYADSVKGRFTISRDNAKNSLYLQMNSLRAEDTAVYYCARDYYGSGTYYLFDYWGQGTLVTVSS
VL: EIVLTQSPDFQSVTPKEKVTITCRASQSIGSSLHWYQQKPDQSPKLLIKYASQSFSGVPSRFSGSGSGTDFTLTINSLEAEDAAAYYCHQSRSLPITFGQGTRLEIK
notes: also called antibody fraction (SP3)
Consider B1, for which the binding result in assay [1] was “no binding (tested: ratio <2 = no reactivity; 6 µg/mL)”. Also, the median fluorescence ratio in assay [2] came to 4.3.

B2: Nec1-803-2 (antibody, human IgG1, V domains shown)
VH: QVQLQESGPGLVKPSETLSLTCTVSGGSISSYYWTWIRQPPGKGLEWIGYIYYSGSTNSNPSLKSRVTISVDTSKNQFSLKLSSVTAADTAVYYCTRDPGEDYNYGMDVWGQGTTVTVSS
VL: AIQLTQSPSSLSASVGDRVTITCRASQGISSALAWYQQKPGKAPKLLIYDASSLESGVPSRFSGSGSGTDFTLTISSLQPEDFATYYCQQFNSYPRTFGQGTKVEIK
In the case of B2, the binding result in the assay with human nectin-4 protein, in the assay with human nectin-1 protein and with human Nec1-5 protein was “no binding (tested: 6 µg/mL)” in each case.

B3: Nec1-834-1 (antibody, human IgG1, V domains shown)
VH: QVQLQESGPGLVKPSETLSLTCTVSSASISSYYWSWIRQPPGKGLEWIGYIYYSGSTNYNPSLKSRVTISIDTSKNQFSLKLSSVTAADTAVYYCARDAGEDYSYGMDVWGQGTTVTVSS
VL: AIQLTQSPSSLSASVGDRVTITCRASQGISSALAWYQQKPGKAPKLLIYDASSLESGVPSRFSGSGSGTDFTLTISSLQPEDFATYYCQQFNSYRTFGQGTKVEIK
notes: human IgG1/k from hybridoma FERM BP-10428
With B3, the binding result in the assay with human nectin-4 protein, with human nectin-1 protein and in the assay with human Nec1-5 protein was “no binding (tested: 6 µg/mL)” throughout.
